Here are results for 5 substances from paper PMC4112278.

Holding throughout (assay): SEC
On the technique in general: Size exclusion chromatography separates by hydrodynamic size, large species first.

In assay [1] the target is HIV-1_(YU2) gp140 Env trimer (HIV-1 (isolate YU2)).
Assay [2] has as its target HIV-1_(UG37) gp140 Env trimer (HIV-1 (isolate UG37, clade A)).
For assay [3], the target named is HIV-1_(NIBSC40-9) gp140 Env trimer (HIV-1 (isolate NIBSC 40-9, clade A)).
In assay [4] the target is HIV-1_(ITM1_4) gp140 Env trimer (HIV-1 (isolate ITM1_4, clade A)).
The target in assay [5] is SIV_(mac239) gp140 Env trimer (SIV_(mac239)).

One may read the stoichiometry N as the number of molecules, sites or subunits per partner or assembly. “HIV-1_(YU2) gp140 Env trimer (domain or fragment)” came in with a stoichiometry N in assay [1] of 3.
“HIV-1_(UG37) gp140 Env trimer (domain or fragment)” yielded a stoichiometry N in assay [2] of 3.
The substance “HIV-1_(NIBSC40-9) gp140 Env trimer (domain or fragment)” returned a stoichiometry N in assay [3] of 3.
For the substance “HIV-1_(ITM1_4) gp140 Env trimer (domain or fragment)”, in assay [4], the stoichiometry N was found to be 3.
The substance “SIV_(mac239) gp140 Env trimer (domain or fragment)” displayed a stoichiometry N in assay [5] of 3.
